According to article PMC6161613:

Assays:
Dansyl-calmodulin (rat) [1] = biological target: Dansyl-calmodulin (rat) (UniProt P0DP29); assay: other fluorescence titration; D-CaM (12.5 nM) fluorescence enhancement on adding increasing concentrations of GST-fusion protein; 3.9 μM free Ca2+; Hill fit; apparent binding affinity (EC50)
Dansyl-calmodulin (rat) [2] = biological target: Dansyl-calmodulin (rat) (UniProt P0DP29); assay: other fluorescence titration; D-CaM (12.5 nM) fluorescence enhancement on adding increasing concentrations of GST-fusion protein; absence of Ca2+ (10 mM EGTA added); Hill fit; apparent binding affinity (EC50)
[3] = biological target: GST-Kv7.2 helices A-B fusion protein (G310-L548) K526N (human); assay: pull-down; purified GST fusion proteins immobilised on GSH-Sepharose 4B beads; CaM (10 μg) added, 45 min, room temperature; 25 mM Hepes, 120 mM KCl, 5 mM NaCl, pH 7.5 with 100 μM CaCl2; anti-CaM Western blot, band intensities quantified (n = 3)

| EC50 (Dansyl-calmodulin (rat) [1]) [nM] | EC50 (Dansyl-calmodulin (rat) [2]) [nM] | percent lower CaM signal intensity than WT [3] [%] | Substance |
| --- | --- | --- | --- |
| 55.9 | 37.3 |  | GST-Kv7.2 helices A-B fusion protein (G310-L548) K526N (domain or fragment) |
|  |  | 42 | Recombinant rat brain calmodulin (from UniProt P0DP29 1-149) (natural protein) |
| 30.1 | 12.6 |  | GST-Kv7.2 helices A-B fusion protein (G310-L548) R333Q (domain or fragment) |
